Test results: US6716816
Where no end group is shown, it is not given here. [ ]: non-standard residue; d: D form. Aib = CC(C)(N)C(=O)O

Target: T1, lecithin:cholesterol acyltransferase (LCAT), purified from human plasma (human, UniProt P04180 25-440)
T1 sequence (looked up): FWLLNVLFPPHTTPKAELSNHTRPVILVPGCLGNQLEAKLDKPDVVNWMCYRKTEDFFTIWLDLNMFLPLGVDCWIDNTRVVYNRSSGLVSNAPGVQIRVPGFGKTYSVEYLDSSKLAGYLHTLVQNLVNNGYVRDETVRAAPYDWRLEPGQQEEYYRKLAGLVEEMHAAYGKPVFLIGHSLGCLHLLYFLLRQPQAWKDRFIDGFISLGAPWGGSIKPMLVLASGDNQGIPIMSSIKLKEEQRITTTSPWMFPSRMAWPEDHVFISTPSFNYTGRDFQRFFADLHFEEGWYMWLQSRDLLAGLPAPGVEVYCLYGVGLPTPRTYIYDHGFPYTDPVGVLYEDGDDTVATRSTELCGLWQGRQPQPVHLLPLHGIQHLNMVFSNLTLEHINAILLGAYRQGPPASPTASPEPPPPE
Test: cell-based or functional assay

B1: peptide 78 (peptide)
peptide: PVLDEFRDKLNE[Aib]LEALKQKLK
ACTIVITY (%) LCAT: 9%
